Reference: the DeepSol protein solubility set

Test: soluble on expression in E. coli; label from the status in PepcDB or PDB records

Row | Sequence | soluble on expression in E. coli
1 | MSLQRPKVKGMDQTLATSRKTSNACNVLALCTRDNPAILTIAHRGFWTATAENSLASVRAAVAAGVEMIEIDTQATADGRLVVIHDETLDRTTTGKGTVSALPFEVVRAAKLKAGAGGDGADVTDECVPTLEEVLEEARGRITVNIDTKFTRDLPQVMETVLRLGVEDQVLVKTDVDPEAERFEVLGSHWFGRIPHMPMFPVRKGKFAEDLRRIEALKAPMIEVKFTDIADLAEGRAEMERQNIRLWINSLDVSHCLDFNDTRALSNPEAVWGALAEAGTGAIQTDEVEAFTAWLKAGAGETGRAWTREGHHHHHH | soluble
2 | MSLQRPLGNHHDGPDTLLVTSDATQTELVTAETEKLRELITRARFVLFDFDGPICRLFAGHKAERVAVELVEWLEGRGLHALLSETEREALDPHIVLRAVDRRHPGSDLVAELEERLTKQELRAASSAMPTAYADPLIRTWTAVGARLAIATNNSPRVARKYVASRGLSACFAPHIYGRTQDLHLLKPDPHCLNRALNAMGAAPSASLMIGDTPSDYFAAQRAGVPFLGYARNDRKEKLLKEAGAEEIVGSLELVLRVLREQSASAREGHHHHHH | soluble
3 | MSLQSSVASGLSLNPEQLAVMAVGSGGVVVSLSAPAETVIVIVEHLDHKEEVIVQGREIVPSMDGHFDTIQELNSRFTESAPREKIEIGNRERPFKLHVVNVGDSRAMLVTRESYAALTRDHVPDDPGELRRIQETGDEGKKDNPSPSPITAKPDVRYFYATWEDVLILHSDGLLAESDRWEEVAGAALQCMESEPRIRGVATCLVQQAYRRGSTDNITALVSTFQKPSLNEGHHHHHH | soluble
4 | MSLQSSVKTERQYLSGRGCDDMVQWDFMCTGGNNSGKWTKIGVPSCWELQGFGTYQYGMKFYGKAFPEGVADEQGLYKYEFELPAEWNGKQIELVFEGSMTDTQVKINGRKAGSMHQGAFYRFIYNVSDRVFFGSKKKNVLEVTVSKESANAGVNLAERRADYWNFGGIFRPVFIVAKPAQNIDRLVIDAKADGNFYADCFLNMAVEGARVHTVITDAKGKKVAENTSDVRTGSDHASINFAVKSPELWTAETPAMYQATFTLLDKAGKTLHVENQKFGFRTIETRESDGLYINGRRVMIKGVNRHSFRPESGRTLSKAKNIEDVLLIKSMNMNAVRLSHYPADPEFFEACDSLGLYVMDELSGWHGKHETINGQKLVKEMITRDVNHPCIIWWSNGNEKGWNTELDGEFHKYDPQKRPVLHPQGNFSGYETMHYRSYGESQNYMRLPEIFMPTEFLHGLYDGGHGAGLYDYWEMMRKHPRCAGGFLWVLADEGVKRVDMNGFIDNCGNYGADGIVGPHHEKEGSYFTIKQVWCPIQIMTDSLDSQFDGKLKIENRYDFLNANTCRFTYKYVQLPSVTDKGGMKVMKQGEVNCPDIPAHGAGTLTIPAAVKGANALMLTVTDKQGNDLFTWSYKLDDVAGLQQVSAGNKPSYKETADALTVDAEGRTFTFSQKDGQLKGVKVGSRIISLANGPRFIAAKRSDRSMDQFYNHDDKEAEKKKTQYTTFDDAGRFTGFTVREEGNNVVVTANYKLGCFDQAVWTIAPDGTAAIDFTYNFSGVVDLMGVMFDYPEDKVLSKRWVGDGPYRVWQNRLHGPQLGVWENEYNDPIPAESFTYPEFKGYFANVQWMTLKTQEGTISICNRTPQNYVGVYQPRDGRDGLLYTFPATGISLMKVIPPVRNKVNTTDLIGPSSQAFWADGAYGGGITLKFEEGHHHHHH | soluble
5 | MSLQTDDPMIVAHRAGTRDFPENTVLAITNAVAAGVDGMWLTVQVSSDGVPVLYRPSDLATLTDGAGPVNSKTVQQLQQLNAGWNFTTPGVEGHPYRQRATPIPTLEQAIGATPPDMTLFLDLKQTPPQPLVSAVAQVLTRTGAAGRSIVYSTNADITAAASRQEGLQVAESRDVTRQRLFNMALNHHCDPQPDPGKWAGFELHRDVTVTEEFTLGSGISAVNAELWDEASVDCFRSQSGMKVMGFAVKTVDDYRLAHKIGLDAVLVDSPLAAQQWRHEGHHHHHH | not soluble
6 | MSLQTQLVHELVENQPTKLLIYVKNIRTIRTKKGEQMAFVDGDDTTGSISLTLFPTVFRQLRQSVEKGQVYYVEGKVERSTYNQELQILVQRIEKAQQVETSISDETCFIRITKDVEQTDVFQKMKEVLSRHAGHIPVIVYFEKTGKKIVLNEENWVAHTSASQQQLAYVLGEQNVIFKEGHHHHHH | soluble
7 | MSLRAIGLSNQVQHLKETVIAVEKKSKHKKTDDSLDISRIQYYMNNFVYYYINYSQDTADQRKTELENYYSFSTASMTDDVRKSRTLQTQRLISVEKEKDYYIALMRIGYEVDKKSYQMNLAVPFQMQRGLLAIVSQPYTVAEDLYLGKSKAFEKKTLDQVKELSKEQVSSIQKFLPVFFNKYALINKTDLKLLMKTPELMGKGFKVSELDLNNAIYYQEKKHQVVQLSVTFEDLVTGGTRSENFTLYLFKADNGWYVEEMYHYFKEGHHHHHH | soluble
8 | MSLRAKVTTKKYSVCEAPKVSEEELLSALVDRHKGKVQFIDFWATWCGGCRRTIKEYEPIKKELGENVAFVYLTGPSSIEKTWKILIQDIVGEHYWLNEKQWGYLWKHFQMKGLPMYLVIDKQGNIVKRFTHVTRKELEELLKQEINKEGHHHHHH | soluble
9 | MSLREINMLRNISSCLFPHISTITSPNHYLSEWDDWEKQGLPEEQRTEAVRRLRACLTSKGHKLDLRALALSSLPVLPACIKKLDVSCNKLTILTDLPENIKELIARDNFLTHISALPHYLITLDVSENQLENLPLLPDTIKSLSAEYNRLSTLPSLPLNLKKLEVRNNELQTLPSLPSNLKILKVAHNHLTELPPLPRRLQLLFAYSNRLSNLPNIQENIIMRRFFYFENNQITTIPTNLFRLDPHITIEIANNPLSDQTLLFLIQQTSVPNFNGPQFRISLSDEGHHHHHH | soluble
10 | MSLRIDHSGSCVWLKMQKPRFSFAVLLPSETMRRQFTRNTSNMKTELTLLEQTLTLHRFPKRNNETLQAWDAGDEYLIQHVEQLALPESSHIVIINDHFGTLSCWFSQKHKVSMMSDSYIAHQATQANLQQNQRPPVQLLTTLDPVPNDASVVLLQLPKSNRHLVWILSQLRKALSPNIPIIAVNKAKEIHTSTLNLFEKHLGPTTTSLAWKKHRLVFSSATVNPANEVNPECGWSIEPYAITLTNLPNVYSGESLDLGSRFILEHLPADPTLEDFIDLGCGNGVLSVRLGQLNPQAKITCVDESFMAIASAQKNLHDNLGKRDIHCIANNCLDGFPAHSSSMIVCNPPFHQQQTITDHIAWQMFCDSKHVLKKGGKLWVIGNRHLGYDVKLARLFGKSHVRVIANNSKFVILQAIKSEGHHHHHH | not soluble
11 | MSLRIEYNYRYYLTENEYKQYHIQLKGFIKKYVATKLADVGEVIHFAQAQQRQGRYVSLYLSYEAAKYFNHVMCTHSLAKDDIYAVAYSFEKAESINSTYEHQTSYVSKHHFSFVESSEVMMTNIKRVQQAIVEGETYQVNYTARLTDNIYYPISTLYERLTQFSNGNYTALLQTDEIQVASISPELFFQKGQFNNVDNVIISKPMKGTMPRGKTEAEDQQYYKTLQTSSKDRAENVMIVDLLRNDIGRISQSGSIKVYKLFFIEAYKTVFQMTSMVSGTLKTNTDLTQILTSLFPCGSITGAPKLNTMKYIKQFESSPRGIYCGAIGLLLPTEDDKMIFNIPIRTIEYKYGQAIYGVGAGITIDSKPKDEVNEFYAKTKILEMLEGHHHHHH | soluble
12 | MSLRITEGSAVIEVPEAYSGPGRRSPGFYNADQVLNRDLTIDLINEFGVEKVLDGFGGSGVRGIRISLETKAKVVIAEISPSSCEIIKQNIAINNAEADLIHDNFQCVSSHIAFDYIDVDPYGSPVPYLDAAIMNVRKGGYLGITATDQSTLTGSTLNKTRRRYGAYIVNDIYRHEMGIRTLIGYIARRAAAFDRYIEPQLSIWNHHYYRVFVKVGKGVNGADKMIENIGYLNKHTTIDNSFKDVNEGPVWLSNLNNAELLEKIRDPRVSKKIEMIKHDNRLLFVDLTDIARKTSLSLPPLAKVMDEIMKHGYEAHRTSFSPTGIKTDCPYAEVSEILKAYAKREGHHHHHH | soluble
13 | MSLRITGPYQSFARYETALLGFLSHASGMATAALAARRAAPDSHLLSFGARHVHPSIAAVVERAALIGGFDGFSHVAAGDVLDREPGGTMPHALVICFGRGNQEAAWRAFTDGVGDDVPRIALCDTYSDEKDEVLRAVDELGDDLDAVRLDTTSSRRGDFRHIAREVQWALDAGGNSDVSVFVSGGLTPTDLRGLRDVVDGFGVGGFVSNATPVDFGLDIVEVAGEPAAKRGKLSGTKAVYRTPDGGHHVALASQPAPADATALLEPLLVDGTVSMAFDIDDAAARARQDARAVSFRQEGHHHHHH | soluble
14 | MSLRLALFDLDNTLLGGDSDHAWGDYLCERGFLDAVAYKTRNDEFYQDYLAGKLDNAAYLNFCLEILGRTDMVVLEEWHRDFMRDCIEPILLPKAQALLDKHRAAGDKLVIITATNRFVTAPIAERLGVETLIATECEMQDGRYTGRSTDVPCFREGKVTRLNRWLEETGHSLEDSYFYSDSMNDLPLLEQVTTAVAVDPDPNLRAEAEKRGWQVISLRDEGHHHHHH | soluble
15 | MSLRLDKFIAENVGLTRSQATKAIRQSAVKINGEIVKSGSVQISQEDEIYFEDELLTWIEEGQYFMLNKPQGCVCSNDDGDYPTIYQFFDYPLAGKLHSAGRLDVDTTGLVLLTDDGQWSHRITSPKHHCEKTYLVTLADPVEENYSAACAEGILLRGEKEPTKPAKLEILDDYNVNLTISEGRYHQVKRMFAALGNKVVGLHRWKIGDVVLDESLEEGEYRPLTQSEIEKLVEGGSHHHHHH | soluble
16 | MSLRLSLLSSTSKYKVTVAEVQRRLSPPECLNASLLGGVLRRAKSKNGGRSLREKLDKIGLNLPAGRRKAAHVTLLTSLVEGEAVHLARDFAYVCEAEFPSKPVAEYLTRPHLGGRNEMAARKNMLLAAQQLCKEFTELLSQDRTPHGTSRLAPVLETNIQNCLSHFSLITHGFGSQAICAAVSALQNYIKEALIVIDKSYMNPGDQSPADSNKTLEKMEKHREGHHHHHH | not soluble
17 | MSLRRIGITQRLLETREYIETREALDVRWGELFYHLSWGMIPLSYAVPLEVYIKEFALEGVILSGGNDLNDFVSSPLNKKRDAYEKEILRYAKQYAFPLLGVCRGAQMIAYEGGSLLEFCEGHVGRHEIFWEEGEGEIIGSEHQLAIKELGAGLIPLARSCEGLVEAFRGEEAPLFGMMWHPERQDKRSAGTLKMVELFSQALQKREGHHHHHH | soluble
18 | MSLRSQQSGILGVIVADIRNPYFTALIRAVEEVAYRAGMRVTLCNTDEDPEREALYLELMQEERITGLIFAPTRVTVGRMHELALDYPTVLVDRAGPGSRYDSVVLDNGAAMAELVAHLQAQGYRRIGGLFGSTSTTAAERRDGYLAAMRAQGLQPDYREVAPTAEAAIAELGAWLANDQRPEAIVTSNSLLLMGALKAARTAGLRLPQDLALAGFDNERWTDLVEPGITVVEQPVEDMGRAAMSLLLERLSNRQLPIRRLVMTGRCVVRGSTAEGHHHHHH | soluble
19 | MSLRVIDGGVTAPKGFKANGYKEGKFGVAIIISEKDAVGAGTFTTNKVVAHPVVLSRELIKNRDKFRAIVANSGNANCFTKDGMEDAKEMQRLVAELFNINEDEVLVASTGVIGRKMDMNIIKDRINKVYNLIKEGNSSINAAKAIMTTDTKPKEIAVEFEVNGKTVRVGGIAKGAGMIAPNMLHATMLCFITTDIEIDKESLTNILQKVVDKTFNNISVDGDTSTNDTVFVLANGLSGVNYEECGEEFENALLYVCRELAKMIVKDGEGATKFMEVVVKGAKTEEDAVKASKAIVNSLLVKTAVFGGDPNWGRIVAAVGYSGADFNPEVVDVILSNYKDEVYLVKDGIPLADEGTEELKKAEEIMKSDEIKIVVDLKMGEFENVCYGCDLSYEYVRINAEYTTEGHHHHHH | soluble
20 | MSLRVKTMVFTPFISMVGVTGSMGPFFCEFTLNGDLLPINYPATYTHELAHLLGISSEAEANFYAYQVCTRSQIKGIRFSGYFSILNHVLGNARRLLSEKEYADIINRIRPEIIELAKKNQEYWMAKYSPLIGDVQNWIYDLYLKGNKIESGRKNYSEVIGLLISYQVWKAKTASDEGHHHHHH | not soluble
